Data taken from publication PMC4356368, “Four crystal structures of human LLT1, a ligand of human NKR-P1, in varied glycosylation and oligomerization states” (Acta Crystallographica Section D: Biological Crystallography, 2015).
Each block holds one molecule with its values, some of them ahead of it.

How the values were obtained:
[1] = target: LLT1 produced in the HEK293T cell line with wild-type complex N-glycosylation (human); assay: AUC; sedimentation velocity, 50 000 rev/min, 20°C, absorbance 280 nm, 10 mM HEPES pH 7.5, 150 mM NaCl, 10 mM NaN3; several concentrations (HEK293T protein at 0.2 mg/ml and tenfold diluted; GnTI- protein at five concentrations); continuous size-distribution and monomer-dimer self-association models; dimer to monomers
[2] = target: the molecule itself; assay: crystal structure; LLT1_D1 and LLT1_D2: deglycosylated protein, 30%(w/v) PEG 6000, 0.1 M HEPES pH 7.0, 294 K; one dimer in the asymmetric unit, P212121
[3] = target: the molecule itself; assay: AUC; sedimentation velocity, 50 000 rev/min, 20°C, absorbance 280 nm, 10 mM HEPES pH 7.5, 150 mM NaCl, 10 mM NaN3; several concentrations (HEK293T protein at 0.2 mg/ml and tenfold diluted; GnTI- protein at five concentrations); continuous size-distribution and monomer-dimer self-association models; dimer to monomers
[4] = target: the molecule itself; assay: crystal structure; LLT1_glyco: GlcNAc2Man5-glycosylated protein, 40%(v/v) PEG 300, 0.1 M citrate-phosphate pH 4.2, 288 K; P6322, hexamer of three dimers by crystal symmetry
[5] = target: the molecule itself; assay: dynamic light scattering; 1 mg/ml in 10 mM HEPES, 150 mM NaCl, 10 mM NaN3 pH 7.5; 291, 298 and 303 K

stoichiometry N [1]: 2
Molecule: LLT1 produced in the HEK293T cell line with wild-type complex N-glycosylation (domain or fragment)

B1: Human LLT1 C-type lectin-like extracellular domain (Gln72-Val191, His176Cys), deglycosylated after the first N-acetylglucosamine unit (domain or fragment)
chain: ITGQAACPESWIGFQRKCFYFSDDTKNWTSSQRFCDSQDADLAQVESFQELNFLLRYKGPSDHWIGLSREQGQPWKWINGTEWTRQFPILGAGECAYLNDKGASSARCYTERKWICSKSDIHV
modifications: single N-linked GlcNAc left at Asn95 and Asn147 after Endo F1
notes: remnant of the secretion leader at the beginning of the chain; LLT1 (lectin-like transcript 1), human, UniProt Q9UHP7 isoform 1, CTL extracellular domain Gln72-Val191 with His176 to Cys176; Same polypeptide as m1; it differs only in the glycans; L-arginine-HCl (0.4 M) was added after deglycosylation; also called LLT1_mono; LLT1_D1
stoichiometry N [2]: 2

B2: Human LLT1 C-type lectin-like extracellular domain (Gln72-Val191, His176Cys) with homogeneous GlcNAc2Man5 N-glycosylation (domain or fragment)
chain: B1 chain
modifications: N-linked GlcNAc2Man5 glycans at Asn95 and Asn147
notes: remnant of the secretion leader at the beginning of the chain; LLT1 (lectin-like transcript 1), human, UniProt Q9UHP7 isoform 1, CTL extracellular domain Gln72-Val191 with His176 to Cys176; the construct is described in Bláha et al. (2015); also called LLT1_glyco; glycosylated LLT1; source: HEK293S GnTI- cells, transiently transfected, secreted, purified (Talon IMAC, Superdex 200 SEC)
Kd [3]: ~20 µM
stoichiometry N [4]: 6
stoichiometry N [5]: 2
